In experiment [1] the target is T1, full-length mouse CD70 with C-terminal V5 tag (mouse, UniProt O55237 1-195).
T1 construct: On transfected CHO cells; also called murine CD70
T1 sequence: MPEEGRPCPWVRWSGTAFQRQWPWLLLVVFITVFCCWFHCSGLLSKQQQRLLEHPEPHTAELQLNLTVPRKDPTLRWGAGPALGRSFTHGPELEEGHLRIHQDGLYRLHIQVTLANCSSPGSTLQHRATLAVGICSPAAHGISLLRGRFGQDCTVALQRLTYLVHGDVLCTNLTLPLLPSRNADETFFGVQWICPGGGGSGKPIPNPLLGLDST
Kind of experiment: FACS on CHO cells, periplasmic scFv.
Procedure: (§1) All antibodies were diluted in PBS/1.5% FCS. As negative control, cells were incubated with PBS/2% FCS instead of the periplasmic extract. The samples were measured by flow cytometry.

For the next experiment, the target named is T2, human CD70 (human, UniProt P32970 1-193).
T2 construct: also called hu CD70; CD27L
T2 sequence: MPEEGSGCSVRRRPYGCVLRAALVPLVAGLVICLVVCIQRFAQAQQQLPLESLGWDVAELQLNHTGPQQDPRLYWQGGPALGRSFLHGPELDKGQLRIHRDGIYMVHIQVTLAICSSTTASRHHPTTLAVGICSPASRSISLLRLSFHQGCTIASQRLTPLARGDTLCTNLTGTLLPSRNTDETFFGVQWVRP
As to the kind of experiment: FACS on CHO cells, periplasmic scFv.

Procedure for human CD70: as §1

B1: CD70-32 (scFv)
scFv: EVQLLESGGGMVQPGGSLRLSCAASGFTFSSYAMSWVRQAPGKGLEWVSAISGSGGRTFYADSVEGRFTISRDNSKNTLYLQMNSLRAEDTAVYYCTKHDYSNYPYFDYWGQGTLVTVSSGGGGSGGGGSGGGGSEIVLTQSPGTLSLSPGERATLSCRASQGVRSDYLAWYQQKPGQAPRLLIYGASSRATGIPDRFSGSGSGTDFTLTISRLEPEDFAVYHCQQYGSTPPTFGGGTKVEIK
notes: As m32
For the molecule B1, the binding result in experiment [1] was “no binding”; in the experiment with human CD70 it was “binds”.

B2: CD70-20 (scFv)
scFv: EVQLLESGGGLVQPGGSLRLSCAASGFTFSTYAMSWVRQAPGKGLEWVSLISGSGGRTYYADSVKGRFTISRDNSKNTLYLQMNSLRAEDTAVYYCAKHDYSNYPYFDYWGQGTLVTVSSGGGGSGGGGSGGGGSEIVLTQSPGTLSLSPGERATLSCRASQGVRSDYLAWYQQKPGQALRLLIYGASSRATGIPDRFSGSGSGTDFTLTISRLEPEDFAVYHCQQYGSTPPTFGGGTKLEIK
notes: As m32
For B2, the figures for the binding result (in experiment [1]; with human CD70) were “no binding” and “binds”, respectively.

B3: CD70-54 (scFv)
scFv: EVQLLESGGGLVQPGGSLRLSCAASGFTFSIYAMSWVRQAPGKGLEWVSAIGDSGGSTFYADSVKGRFTISRDNSKNTLYLQMNSLRAEDTAVYYCAKHDYSNYPYFDYWGQGTLVTVSSGGGGSGGGGSGGGGSEIVLTQSPGTLSLSPGERATLSCRASQSVRSSYVAWYQQKPGQAPRLLIYGASSRATGIPDRFSGSGSGTDFTLTISRLEPEDFAVYYCQQYGDLPFTFGPGTRLEIK
notes: As m32
On to B3, for which the binding result is reported as “no binding” in experiment [1] and “binds” with human CD70.

B4: CD70-74 (scFv)
scFv: EVQLLESGGGLVQPGGSLRLSCAASGFTFSSYAMSWVRQAPGKGLEWVSAISGSGGSTFYADSVQGRFTISRDNSKNTLYLQVNSLRAEDTAVYYCARHDYSNYPYFDYWGQGTLVTVSSGGGGSGGGGSGGGGSEIVLTQSPGTLSLSPGERATLSCRASQSVRGNYLAWYQQKPGQAPRLLIYGASSRATGIPDRFSGSGSGTDFTLTISRLEPEDFAVYYCQQYGYSPFTFGPGTKVDIK
notes: As m32
B4: the binding result is “no binding” in experiment [1] and “binds” in the experiment with human CD70.

B5: CD70-42 (scFv)
scFv: EVQLLESGGGLVQPGGSLRLSCAASGFTFSTYAMSWVRQAPGKGLEWVSLISGSGGRTYYADSVKGRFTISRDNSKNTLYLQMNSLRAEDTAVYYCAKHDYSNYPYFDYWGQGTLVTVSSGGGGSGGGGSGGGGSEIVLTQSPGTLSLSPGERATLSCRASQGVRSSYLAWYQQKPGQAPRLLIYGASSRATGIPDRFSGSGSGTDFTLTINRLEPEDFAVYYCQQYGSSPPTFGGGTKVDIK
notes: As m32
As for B5, the binding result in experiment [1] is “no binding”; with human CD70, “binds”.

B6: CD70-40 (scFv)
scFv: EVQLLESGGGMVQPGGSLRLSCAASGFTFSSYAMSWVRQAPGKGLEWVSAISGSGGRTFYADSVEGRFTISRDNSKNTLYLQMNSLRAEDTAVYYCAKHDYSNYPYFDYWGQGTLVTVSSGGGGSGGGGSGGGGSEIVLTQSPGTLSLSPGERATLSCRASQSIRSSYLAWYQQKPGQAPRLLIYGASSRATGIPDRFSGSGSGTDFTLTISRLEPEDFAVYYCQQYGDLPFTFGPGTKVDIK
notes: As m32
In the case of B6, the values for the binding result (in experiment [1]; in the experiment with human CD70) were “no binding” and “binds”, respectively.

B7: CD70-38 (scFv)
scFv: EVQLLESGGGVVQPGRSLRLSCAASGFTFSSYAMSWVRQAPGKGLEWVSAISGSGGRTFYADSVEGRFTISRDNSKNTLYLQMNSLRAEDTAVYYCAKHDYSNYPYFDYWGQGTLVTVSSGGGGSGGGGSGGGGSEIVLTQSPGTLSLSPGERATLSCRASQSIRSNYLAWYQQKPGQAPRLLIYGASSRATGIPDRFSGSGSGTDFTLTISRLEPEDFAVYYCQQYGSSPPSFGQGTKVEIK
notes: As m32
Regarding B7, the results for the binding result (in experiment [1]; with human CD70) were “no binding” and “binds”, respectively.

B8: CD70-41 (scFv)
scFv: EVQLLESGGGMVQPGGSLRLSCAASGFTFSSYAMSWVRQAPGKGLEWVSAISGSGGRTFYADSVEGRFTISRDNSKNTLYLQMNSLRAEDTAVYYCTKHDYSNYPYFDYWGQGTLVTVSSGGGGSGGGGSGGGGSEIVLTQSPGTLSLSPGERATLSCRASQSVRSSYLAWYQQKPGQAPRLLIYGASSRATGIPDRFSGSGSGTDFTLTISRLEPEDFAVYYCQQYGDLPFTFGPGTKVDIK
notes: As m32
Regarding B8, the results for the binding result (in experiment [1]; with human CD70) were “no binding” and “binds”, respectively.

B9: CD70-43 (scFv)
scFv: EVQLLESGGGVVQPGRSLRLSCAASGFTFSSYAMSWVRQAPGKGLEWVSAISGSGGRTFYADSVEGRFTISRDNSKNTLYLQMNSLRAEDTAVYYCAKHDYSNYPYFDYWGQGTLVTVSSGGGGSGGGGSGGGGSEIVLTQSPGTLSLSPGERATLSCRASQSVRSNYLAWYQQKPGQAPRLLIYGASSRATGIPDRFSGSGSGTDFTLTINRLEPEDFAVYYCQQYGSSPPTFGGGTKVDIK
notes: As m32
In the case of B9, the figures for the binding result (in experiment [1]; with human CD70) were “no binding” and “binds”, respectively.

B10: CD70-39 (scFv)
scFv: EVQLLESGGGVVQPGRSLRLSCAASGFTFSSYAMSWVRQAPGKGLEWVSAISGSGGGTFYADSVEGRFTISRDNSKNTLYLQMNSLRAEDTAVYYCARHDYSNYPYFDYWGLGTLVTVSSGGGGSGGGGSGGGGSEIVLTQSPGTLSLSPGERATLSCRASQSVRSSYLAWYQQKPGQAPRLLIYGASSRATGIPDRFSGSGSGTDFTLTISRLEPEDFAVYSCQQYGDLPFTFGPGTKVEIK
notes: As m32
With B10, the binding result was “no binding” in experiment [1] and “binds” in the experiment with human CD70.

B11: CD70-36 (scFv)
scFv: EVQLLESGGGLVQPGGSLRLSCAASGFTFSSYAMSWVRQAPGQGLEWVSAISGSGGRTYYADSVKGRFTISRDNSKNTLYLQMNSLRAEDTAVYYCAKHDYSNYPYFDYWGQGTLVTVSSGGGGSGGGGSGGGGSEIVLTQSPGTLSLSPGERATLSCRASQSVRGSYLAWYQQKPGQAPRLLIYSASSRATGIPDRFSGSGSGTDFTLTISRLEPEDFAVYYCQQYGDSPFTFGPGTKVEIK
notes: As m32
Consider B11, for which the values for the binding result (in experiment [1]; with human CD70) were “no binding” and “binds”, respectively.

B12: CD70-66 (scFv)
scFv: EVQLLESGGGLVQPGGSLRLSCAASGFTFSSYAMSWVRQAPGQCLEWVSAISGSGGRTYYADSVKGRFTISRDNSKNTLYLQMNSLRAEDTAVYYCAKHDYSNYPYFDYWGQGTLVTVSSGGGGSGGGGSGGGGSEIVLTQSPGTLSLSPGERATLSCRASQSVRGSYLAWYQQKPGQAPRLLIYSASSRATGIPDRFSGSGSGTDFTLTISRLEPEDFAVYYCQQYGDSPFTFGCGTKVEIK
notes: As m32
Consider B12, for which the binding result in experiment [1] is given as “no binding”; in the experiment with human CD70, “binds”.

B13: CD70-44 (scFv)
scFv: EVQLLESGGGLVQPGGSLRLSCAASGFTFSSYAMSWVRQAPGKGLEWVSVISDSGGITDFADSVKGRFIISRDNSRNTLYLQMNSLRAEDTAVYFCARHDYSNYFFFDYWGQGTLVTVSSGGGGSGGGGSGGGGSDIQMTQSPSSLSASVGDRVTITCRASQDISNYLNWYQQKSGKAPELLIYAASSLQSGVPSRFSGSGSGTDFTLTISSLQPEDFATYYCQQSYISPPTFGQGTKVEIK
notes: As m32
Turning to B13, the binding result in experiment [1] is given as “no binding”; with human CD70, “binds”.

B14: CD70-29 (scFv)
scFv: EVQLLESGGGLVQPGGSLRLSCAASGFNFASYAMSWVRQAPGKGLEWVSVISGSGGRTHYADSGKGRFTISRDNSKNTLYLQMNSLRAEDTAVYYCAKHDYSNYPYFDYWGQGTLVTVSSGGGGSGGGGSGGGGSEIVLTQSPGTLSLSPGERATLSCRASQSVRSSYLAWYQQKPGQAPRLLIFGASSRATGIPDRFSGSESGTDFTLTINRLEPEDFAVYYCEQYGNSPPTFGGGTKVEIK
notes: As m32
On to B14, for which the binding result in experiment [1] is listed as “no binding”; with human CD70, “binds”.

B15: CD70-33 (scFv)
scFv: EVQLLESGGGLVQPGGSLRLSCAASGFTFSTYAMSWVRQAPGKGLEWVSTISDSGGSTFYADSVMGRFTISRDNSKNTLYLQMNSLRAEDTAVYYCARHDYSNYAFFDYWGQGTLVTVSSGGGGSGGGGSGGGGSEIVLTQSPATLSVSPGERATLSCRASQSVSSNLAWYQQKPGQAPRLLIYGASSRATGIPDRFSGSGSGTDFTLTISSLQAEDVAVYYCQQYYSTPFTFGPGTKVEIK
notes: As m32
As to B15, the binding result is reported as “no binding” in experiment [1] and “binds” with human CD70.

B16: CD70-34 (scFv)
scFv: EVQLLESGGGLVQPGGSLRLSCAASGFTFSTYAMSWVRQAPGKGLEWVSTISDSGGSTFYADSVMGRFTISRDNSKNTLYLQMNSLRAEDTAVYYCARHDYSNYAFFDYWGQGTLVTVSSGGGGSGGGGSGGGGSEIVLTQSPATLSVSPGERATLSCRASQSVSSNLAWYQQKPGQAPRLLIYGASTRATGIPARFSGSGSGTEFTLAISRLEPEDFAVYYCQQYYSTPFTFGGGTKVEIK
notes: As m32
Regarding B16, the binding result in experiment [1] is recorded as “no binding”; in the experiment with human CD70 it was “binds”.

B17: CD70-37 (scFv)
scFv: EVQLLESGGGLVQPGGSLRLSCAASGFTFSSYAMSWVRQAPGKGLEWVSAIGDGGGYTYYADSVKGRFTISRDNSKNTLSLLMNSLRAEDTAVYYCARHDYSNYPYFDYWGQGTLVTVSSGGGGSGGGGSGGGGSEIVLTQSPGTLSLSPGERATLSCRASQGVRSSYFAWYQQKPGQAPRLLIYGASTRATGIPARFSGSGSGTDFTLTISRLEPEDFAVYYCQQYGSSPPTFGQGTKVEIK
notes: As m32
For B17, the results for the binding result (in experiment [1]; with human CD70) were “no binding” and “binds”, respectively.
